Test results reported in patent US20190282616A1, “MACROPHAGES REDIRECT PHAGOCYTOSIS BY NON-PROFESSIONAL PHAGOCYTES AND INFLUENCE INFLAMMATION” (University of Virginia Patent Foundation, priority 2016, published 2019).

B1: PDGF-BB: growth factor of the tested panel of soluble mediators (protein, UniProt P01127 82-190, looked up)
Platelet-derived growth …: SLGSLTIAEPAMIAECKTRTEVFEISRRLIDRTNANFLVWPPCVEVQRCSGCCNNRNVQCRPTQVQLRPVQVRKIEIVRKKPIFKKATVTLEDHLACKCETVAAARPVT
modifications: homodimer
notes: growth factor of the tested panel of soluble mediators
B2: IL-5: cytokine; recombinant mouse IL-5 (eBiosciences) (protein, UniProt P04401 21-133, looked up)
Interleukin-5: MEIPMSTVVKETLTQLSAHRALLTSNETMRLPVPTHKNHQLCIGEIFQGLDILKNQTVRGGTVEMLFQNLSLIKKYIDRQKEKCGEERRRTRQFLDYLQEFLGVMSTEWAMEG
B3: IL-13: cytokine; recombinant mouse IL-13 (eBiosciences) (protein, UniProt P20109 19-131, looked up)
Interleukin-13: APGPVPRSVSLPLTLKELIEELSNITQDQTPLCNGSMVWSVDLAAGGFCVALDSLTNISNCNAIYRTQRILHGLCNRKAPTTVSSLPDTKIEVAHFITKLLSYTKQLFRHGPF

Columns and labels:
LR73 cells = assay: In vitro engulfment assay: apoptotic thymocyte uptake by LR73 cells; assay type: cell-based, hamster; settings: soluble mediator alone; IGF-I at concentrations reported in serum (100-600 ng/mL); other factors over a range of concentrations
Protocol: LR73, SVEC-40, BEAS-2B, and 16HBE14o-cells were seeded in a 24 well plate. Thymocytes were isolated from 4-6 week old mice and induced to undergo apoptosis with dexamethasone. Thymocytes or prepared microvesicles were then stained with either CypHer5E (GE Healthcare, PA15401) or TAMRA (Invitrogen, C-1171). LR73 and SVEC-40 cells were incubated with apoptotic thymocytes at a 1:10 phagocyte to target ratio, BEAS-2B at a 1:5 phagocyte to target ratio, and 16HBE14o—at a 1:20 phagocyte to target ratio for 2 hours. Mouse IGF-I (Sigma-Aldrich), human IGF-I (Sigma-Aldrich), human IGF-II (Sigma-Aldrich) were added to the phagocytes at the same time as addition of apoptotic targets. For IGFBP3 studies, IGFBP3 (Sigma-Aldrich) was added to media or supernatant from J774 cells for one hour to allow IGFBP3 to bind to any available IGF-I, then the mix is added to phagocytes along with apoptotic targets. […] Targets were then washed off three times with PBS, and the cells were dissociated from the plate with trypsin and the engulfment assessed by flow cytometry.

[1] = system: IGF-1R, Akt and Erk1/2 phosphorylation in LR73 cells; assay: Immunoblotting of signaling in LR73 cells; assay type: cell-based, hamster; settings: serum-starved LR73 cells, 100 ng/mL growth factor
Protocol: LR73, J774, or BEAS-2B cells were seeded in a 60 mm dish at a concentration of 5×10^5. […] Cells were lysed in RIPA buffer and used in Western blots. The blots were probed for phospho-Erk1/2 (Cell Signaling Technology, #4370), phospho-Akt (Cell Signaling Technology, #4060), phospho-IGF-1R (Cell Signaling, #3024), total Erk2 (Santa Cruz Biotechnology, #sc-154-G), total Akt (Cell Signaling Technology, #4691), total IGF-1R (Cell Signaling, #9750), and anti-B-actin-HRP (Sigma-Aldrich, #A3854) followed by chemiluminescence detection.

IGF-1 in BAL fluid = assay: In vivo cytokine administration: IGF-1 in BAL fluid; settings: 1 μg recombinant mouse cytokine intranasally for two consecutive days
Protocol: Mice were administered intranasally with 1 μg of recombinant mouse IL-4, IL-5, or IL-13 (eBiosciences), 1×10^6 apoptotic Jurkat cells, or PBS as control, for two consecutive days. On the third day, BAL fluid was recovered and centrifuged; the supernatant was stored at −80° C. for subsequent cytokine analysis. IL-4, IL-5, IL-6, and CCL-11/Eotaxin-1 in the BAL fluid of mice that were sensitized with HDM (regimen #1) were quantified by a multiplex Luminex performed by the University of Virginia Flow Cytometry Core Facility. Secretion of IGF-1 from J774 cells, peritoneal macrophages, and BAL fluids, as well as TSLP from BAL fluids, were measured by ELISA (R&D Systems).

Molecule | apoptotic cell uptake (engulfment) by LR73 cells (LR73 cells) | early downstream signaling events (Erk1/2 phosphorylation) [1] | IGF-1 in bronchoalveolar lavage (BAL) fluid (IGF-1 in BAL fluid)
B1 | did not alter engulfment | elicited early downstream signaling events | –
B2 | – | – | but not IL-5, induced IGF-1 production
B3 | – | – | induced IGF-1 production
